This is an account of results in US20220242962A1 (APTEVO RESEARCH AND DEVELOPMENT, published 2022).

In experiment [1] the target is T1, Full-length Human OX40 (human, UniProt P43489 29-277).
T1 sequence: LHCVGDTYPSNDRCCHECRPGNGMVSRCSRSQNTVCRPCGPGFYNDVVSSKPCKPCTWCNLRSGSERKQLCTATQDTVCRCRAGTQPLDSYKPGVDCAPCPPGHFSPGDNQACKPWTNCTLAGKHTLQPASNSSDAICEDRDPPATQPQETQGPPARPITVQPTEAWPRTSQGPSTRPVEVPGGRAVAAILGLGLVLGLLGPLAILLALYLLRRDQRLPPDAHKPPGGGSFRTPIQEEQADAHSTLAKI
The experiment can be described thus: cell-based or functional assay.

Experiment [2] has as its target T2, Full-length Human 4-1BB (human, UniProt Q07011 24-255). The experiment can be described thus: cell-based or functional assay.
Experiment [3] deals with T3, Full-length Cyno OX40 (cynomolgus monkey, UniProt P43489 29-277 (human entry)).
T3 construct: on CHO-K1SV cells; also called OXF004; cynomolgus OX40
T3 chain: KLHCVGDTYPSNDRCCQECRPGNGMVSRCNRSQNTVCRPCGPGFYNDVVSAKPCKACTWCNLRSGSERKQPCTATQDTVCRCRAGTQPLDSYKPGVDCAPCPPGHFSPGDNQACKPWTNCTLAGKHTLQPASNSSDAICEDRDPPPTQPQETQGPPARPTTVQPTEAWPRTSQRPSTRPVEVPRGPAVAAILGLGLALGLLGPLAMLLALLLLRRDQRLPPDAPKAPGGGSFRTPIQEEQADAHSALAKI
The experiment can be described thus: flow cytometry on CHOK1SV cells transfected with cynomolgus OX40, goat anti-human Fc secondary antibody, MFI (Mean). The protocol:
(§1) FIGS. 12A-12D show the binding of anti-4-1BB x anti-OX40 constructs, with additional humanization in 4-1BB and altered orientations of binding domains, human (12A) or cynomolgus (12C) 4-1BB-expressing Jurkat cells or human (12B) or cynomolgus (12D) OX40-expressing CHOK1SV cells. Serial dilutions of ADAPTIR™ constructs were incubated with transfected cells and subsequently labelled with a fluorescently-conjugated goat-a-human Fc secondary antibody. […] (See Example 19.)
(§2) Binding studies were performed using the flow cytometry-based staining procedures described above.

Experiment [4] concerns the target T1, Full-length Human OX40. Kind of experiment: flow cytometry, CHO cells expressing human OX40. As to the method:
as §1, §2

Experiment [5] deals with T4, Full-length Cyno 4-1BB (cynomolgus monkey, UniProt Q07011 24-255 (human entry)).
T4 construct: on Jurkat or CHO cells; also called FOB006; cynomolgus 4-1BB
T4 chain: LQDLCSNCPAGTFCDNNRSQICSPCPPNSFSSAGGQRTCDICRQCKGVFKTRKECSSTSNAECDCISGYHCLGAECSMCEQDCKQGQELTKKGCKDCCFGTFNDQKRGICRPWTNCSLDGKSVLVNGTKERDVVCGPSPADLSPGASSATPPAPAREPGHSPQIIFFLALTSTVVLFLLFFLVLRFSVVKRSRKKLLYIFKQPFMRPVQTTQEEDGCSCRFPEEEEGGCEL
The experiment can be described thus: flow cytometry on Jurkat cells transfected with cynomolgus 4-1BB, goat anti-human Fc secondary antibody, MFI (Mean). The protocol: as §1, §2

In experiment [6] the target is T2, Full-length Human 4-1BB. The experiment can be described thus: flow cytometry, Jurkat cells expressing human 4-1BB. The protocol:
as §1, §2

Experiment [7] deals with T5, Human 4-1BB ECD-AFH (human).
T5 construct: entry includes the tags; also called FOB003; HUMAN CD137 ECD-AVI-FLAG-HIS
The experiment can be described thus: SPR, construct captured, monomeric ECD as analyte. As to the method: (§3) Mouse anti-human IgG (GE, BR-1008-39) at 25 μg/ml in 10 mM sodium acetate pH 5.0 was immobilized at a density of ˜10,000 response units (RU) onto each flow cell of a CM5 research-grade sensor chip (GE) by standard amine coupling chemistry. Each binding protein at approximately 100 nM in HBS-EP+ with 0.2% BSA buffer was captured in a flow cell with the immobilized anti-human IgG at a flow rate of 10 μL/min for 20 seconds, leaving one flow cell surface unmodified as the reference. Using a single-cycle kinetics mode, five different concentrations of ECD were sequentially injected through each flow cell at 30 μL/min for 300 seconds followed by a 600 second dissociation period. Regeneration was achieved by injection of 3 M MgCl₂ at a flow rate of 30 μL/min for 30 seconds followed by HBS-EP+ with 0.2% BSA buffer stabilization for 1 min.
(§4) Sensorgrams obtained from kinetic SPR measurements were analyzed by the double subtraction method. The signal from the reference flow cell was subtracted from the analyte binding response obtained from flow cells with immobilized or captured ligands. Buffer reference responses were then averaged from multiple injections. The averaged buffer reference responses were then subtracted from analyte binding responses, and the final double-referenced data were analyzed with Biacore T200 Evaluation software (2.0, GE), globally fitting data to derive kinetic parameters. All sensorgrams were fitted using a simple one-to-one binding model.
(§5) Protein was produced by transient expression, purified by ProA chromatography and prep SEC.

Experiment [8] has as its target T6, Human OX40 ECD-AFH (human).
T6 construct: ECD'; entry includes the C-terminal tags; also called OXF003; Human OX40 ECD-avi-flag-his
T6 chain: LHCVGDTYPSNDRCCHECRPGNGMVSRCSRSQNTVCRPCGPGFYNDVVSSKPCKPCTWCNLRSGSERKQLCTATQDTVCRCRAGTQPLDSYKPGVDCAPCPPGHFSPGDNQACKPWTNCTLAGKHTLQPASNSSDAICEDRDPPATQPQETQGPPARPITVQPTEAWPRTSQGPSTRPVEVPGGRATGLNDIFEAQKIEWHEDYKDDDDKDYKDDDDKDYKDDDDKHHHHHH
Kind of experiment: SPR, construct captured, monomeric ECD as analyte. As to the method:
as §3, §4, §5

Experiment [9] addresses T5, Human 4-1BB ECD-AFH. Kind of experiment: SPR (Biacore 8K), construct captured, monovalent ECD. As to the method: as §3, §4
(§6) Using the BIACORE 8K SPR system, the affinity of these constructs for human and cyno 4-1BB, and human and cyno OX40 ECD, were determined using the methods described above. Monovalent binding affinity was determined by capturing the ADAPTIR™ bispecific construct on the chip and injecting monovalent ECD of the target at multiple concentrations.

The next experiment deals with T7, Cyno 4-1BB ECD-AFH (cynomolgus monkey).
T7 construct: entry includes the tags; also called FOB004; Cyno CD137 ECD-avi-flag-his
T7 chain: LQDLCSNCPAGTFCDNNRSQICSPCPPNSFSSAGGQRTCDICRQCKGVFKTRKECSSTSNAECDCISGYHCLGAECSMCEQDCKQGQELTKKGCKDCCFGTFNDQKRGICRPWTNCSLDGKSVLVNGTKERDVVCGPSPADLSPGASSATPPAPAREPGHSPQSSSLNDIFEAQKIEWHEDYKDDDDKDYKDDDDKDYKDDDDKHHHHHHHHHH
The experiment is described as above. The protocol: as §3, §4, §6

The target in experiment [10] is T6, Human OX40 ECD-AFH. Described as above. As to the method:
as §3, §4, §6

A further experiment deals with T8, Cyno OX40-AFH (cynomolgus monkey).
T8 construct: entry includes the tags; also called OXF005; cyno OX40 ECD
T8 chain: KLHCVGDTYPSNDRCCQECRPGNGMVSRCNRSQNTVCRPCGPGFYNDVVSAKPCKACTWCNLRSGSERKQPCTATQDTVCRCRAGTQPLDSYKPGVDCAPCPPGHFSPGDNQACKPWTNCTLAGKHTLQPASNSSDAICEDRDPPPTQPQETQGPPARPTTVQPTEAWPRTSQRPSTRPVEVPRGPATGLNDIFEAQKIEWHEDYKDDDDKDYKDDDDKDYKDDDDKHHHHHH
The description is as above. As to the method: as §3, §4, §6

Experiment [11] has as its target T3, Full-length Cyno OX40. The experiment can be described thus: flow cytometry on CHOK1SV cells transfected with cynomolgus OX40, goat anti-human Fc secondary antibody, MFI (Mean). The protocol: (§7) Serial dilutions of ADAPTIR™ constructs were incubated with transfected target cells and subsequently labelled with a fluorescently-conjugated goat-a-human Fc secondary antibody. […] (See Example 25.)

Experiment [12] has as its target T4, Full-length Cyno 4-1BB. Kind of experiment: flow cytometry on Jurkat cells transfected with cynomolgus 4-1BB, goat anti-human Fc secondary antibody, MFI (Mean). As to the method: as §7
Experiment [13] deals with T1, Full-length Human OX40. Kind of experiment: cell-based or functional assay. The source holds these as a separate data set.
Experiment [14] addresses T2, Full-length Human 4-1BB. Kind of experiment: cell-based or functional assay. This is another data set of the same source.

Where two headings read alike, the source gives them in different places.

B1: FXX01099 (bispecific antibody)
chain: EVQLVQSGAEVKKPGASVKVSCKASGYTFTSYWMNWVRQAPGQGLEWMGNIYPSGGSTNYAQKFQGRVTMTVDTSTSTVYMELSSLRSEDTAVYYCASFSDGYYAYAMDYWGQGTLVTVSSGGGGSGGGGSGGGGSGGGGSEIVMTQSPATLSLSPGERATLSCRASQSVSSYLNWYQQKPGQAPRLLIYYASRRHTGIPARFSGSGSGTDFTLTISSLQPEDFAVYYCQQGYNLPYTFGQGTKVEIKEPKSSDKTHTCPPCPAPPAAAPSVFLFPPKPKDTLMISRTPEVTCVVVDVSHEDPEVKFNWYVDGVEVHNAKTKPREEQYNSTYRVVSVLTVLHQDWLNGKEYKCAVSNKALPAPIEKTISKAKGQPREPQVYTLPPSRDELTKNQVSLTCLVKGFYPSDIAVEWESNGQPENNYKTTPPVLDSDGSFFLYSKLTVDKSRWQQGNVFSCSVMHEALHNHYTQKSLSLSPGGGGSPSSYVLTQPPSVSVAPGKTARITCGGNNIGSKSVNWFQQKPGQAPVLVVYDDSGRPSGIPERFSGSTSGNTATLTISRVEAGDEADYYCQVWDSSSDHVVFGGGTKLTVLGGGGSGGGGSGGGGSGGGGSQVQLVESGGGVVQPGRSLRLSCAASGFTLSYYGMHWVRQAPGKGLEWVAAISHDGSDKYYADSVKGRFTISRDNSKNTLYLQMNSLRAEDTAVYYCSNDQFDPWGQGTLVTVSSR
notes: ADAPTIR anti-4-1BB (HL) x anti-OX40 with Q17K; also called FX01099
As for B1, in the experiment with Full-length Human OX40 [1], the “OX40 Reporter Assay EC50” value stood at 0.01 nM and the “OX40 Reporter Assay Max induction” value stood at 1.93e+06. In the experiment with Full-length Human 4-1BB [2], the “4-1BB Reporter Assay EC50” value stood at 0.017 nM and the “4-1BB Reporter Assay Max induction” value was 6.65e+06. Besides, in the experiment with Full-length Cyno OX40 [3], the concentration giving a half-maximal response (EC50 (read off the curve)) is around 0.8 nM. Also, in the experiment with Full-length Human OX40 [4], it took 0.36 nM to reach a half-maximal effect (EC50) and the “max MFI” value amounted to 10400 MFI. Moreover, in the experiment with Full-length Cyno 4-1BB [5], the concentration giving a half-maximal response (EC50 (read off the curve)) was around 0.3 nM. Also, in the experiment with Full-length Human 4-1BB [6], the midpoint of the response, the EC50, lay at 0.25 nM and the “max MFI” value worked out at 4900 MFI. For the same molecule, in the experiment with Human 4-1BB ECD-AFH [7], the Kd is 14 nM, the off-rate (koff) was 0.0046 s⁻¹ and the kon came out at 330000 M⁻¹ s⁻¹. Besides, in the experiment with Human OX40 ECD-AFH [8], the Kd is 0.4 nM, the off-rate (koff) is 0.00028 s⁻¹ and the kon stood at 770000 M⁻¹ s⁻¹.

B2: FXX01121 (bispecific antibody)
chain: EVQLVQSGAEVKKPGASVKVSCKASGYTFTSYWMNWVRQAPGQGLEWMGNIYPSGGSTNYAQKFQGRVTMTVDTSTSTVYMELSSLRSEDTAVYYCASFSDGYYAYAMDYWGQGTLVTVSSGGGGSGGGGSGGGGSGGGGSEIVMTQSPATLSLSPGERATLSCRASQSVSSYLNWYQQKPGQAPRLLIYYASRRHTGIPARFSGSGSGTDFTLTISSLQPEDFAVYYCQQGYNLPYTFGQGTKVEIKEPKSSDKTHTCPPCPAPPAAAPSVFLFPPKPKDTLMISRTPEVTCVVVDVSHEDPEVKFNWYVDGVEVHNAKTKPREEQYNSTYRVVSVLTVLHQDWLNGKEYKCAVSNKALPAPIEKTISKAKGQPREPQVYTLPPSRDELTKNQVSLTCLVKGFYPSDIAVEWESNGQPENNYKTTPPVLDSDGSFFLYSKLTVDKSRWQQGNVFSCSVMHEALHNHYTQKSLSLSPGGGGSPSSYVLTQPPSVSVAPGKTARITCGGNNIGSKSVNWFQQKPGQAPVLVVYDDSGRPSGIPKRFSGSTSGNTATLTISRVEAGDEADYYCQVWDSSSDHVVFGGGTKLTVLGGGGSGGGGSGGGGSGGGGSQVQLVESGGGVVQPGRSLRLSCAASGFTLSYYGMHWVRQAPGKGLEWVAAISHDGSDKYYADSVKGRFTISRDNSKNRLYLQMNSLRAEDTAVYYCSNDQFDPWGQGTLVTVSSR
notes: ADAPTIR anti-4-1BB x anti-OX40, pI variant
In the experiment with Human 4-1BB ECD-AFH [9], B2 gave a Kd of 9 nM, a koff of 0.0036 s⁻¹ and an association rate constant (kon) of 390000 M⁻¹ s⁻¹. Also, in the experiment with Cyno 4-1BB ECD-AFH, binding was put at a Kd of 30 nM, the off-rate (koff) turned out to be 0.013 s⁻¹ and the kon was 420000 M⁻¹ s⁻¹. In the experiment with Human OX40 ECD-AFH [10], this molecule displayed a Kd of 0.1 nM, a koff of 0.00013 s⁻¹ and an on-rate (kon) of 1.2e+06 M⁻¹ s⁻¹. In the experiment with Cyno OX40-AFH, this molecule had a Kd of 0.2 nM, a koff of 0.00018 s⁻¹ and a kon of 1e+06 M⁻¹ s⁻¹. Further, the “EC50 (read off the curve)” value with Full-length Cyno OX40 [11] lay in the range of 1 to 2 nM. In the experiment with Full-length Cyno 4-1BB [12], the 50% effective concentration (EC50 (read off the curve)) is around 0.3 nM. In the experiment with Full-length Human OX40 [13], the “OX40 Reporter Assay EC50” value was 0.016 nM and the “OX40 Reporter Assay Max induction” value is 6.19e+06. In addition, in the experiment with Full-length Human 4-1BB [14], the “4-1BB Reporter Assay EC50” value amounted to 0.016 nM and the “4-1BB Reporter Assay Max induction” value was found to be 1.43e+06.
